Measured values reported in PMC9282857, “Adaptor linked K63 di-ubiquitin activates Nedd4/Rsp5 E3 ligase” (eLife, 2022).
One block for each binder: values may come before it.

Assays:
[1] = target: T1, Rsp5 HECT domain (444-809) (S. cerevisiae, UniProt P39940 444-809); assay: ITC; Affinity-ITC calorimeter, 25°C; 20 mM Tris-HCl pH 7.5, 150 mM NaCl, 1 mM DTT; independent binding model; conditions: both partners purified
T1 construct: Rsp5 HECT domain, S. cerevisiae, residues 444-809; also called Rsp5 HECT protein; source: E. coli Rosetta (DE3), purified (TALON, Ulp1 cleavage, Superdex 200); not shown: His6, N-terminal, cleaved; SUMO, N-terminal, cleaved
T1 sequence (looked up): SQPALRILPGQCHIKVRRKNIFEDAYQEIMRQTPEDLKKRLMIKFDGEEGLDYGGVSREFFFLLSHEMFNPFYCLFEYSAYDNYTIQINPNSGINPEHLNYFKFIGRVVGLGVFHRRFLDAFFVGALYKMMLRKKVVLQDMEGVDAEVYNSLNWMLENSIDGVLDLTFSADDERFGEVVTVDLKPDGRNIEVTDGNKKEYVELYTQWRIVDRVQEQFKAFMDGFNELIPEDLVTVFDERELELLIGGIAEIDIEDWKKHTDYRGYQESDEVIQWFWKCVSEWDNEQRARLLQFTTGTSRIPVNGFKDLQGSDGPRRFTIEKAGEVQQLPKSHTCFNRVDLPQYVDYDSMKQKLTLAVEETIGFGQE

[2] = target: T2, Rsp5 WW1-HECT domain (224-809) (S. cerevisiae, UniProt P39940 224-809); assay: as above; conditions: both partners purified
T2 construct: Rsp5 WW1-HECT, S. cerevisiae, residues 224-809; also called purified WW domains from Rsp5; source: E. coli Rosetta (DE3), purified (TALON, Ulp1 cleavage, Superdex 200); not shown: His6, N-terminal, cleaved; SUMO, N-terminal, cleaved

Kd [1]: ~201 µM
B1: mono-ubiquitin (WT) (natural protein)
chain: not shown
notes: ubiquitin, S. cerevisiae, amplified from SEY6210 genomic DNA; also called Ub-WT; mono-Ub-WT; source: E. coli Rosetta (DE3), non-tagged, purified (SP Sepharose, Superdex 200)

Kd [1]: 33 µM
B2: K63-linked di-ubiquitin (complex)
chain 1: not shown
chain 2: not shown
modifications: distal ubiquitin; its C-terminus is joined by an isopeptide bond to K63 of the proximal ubiquitin | proximal ubiquitin; K63 carries the distal ubiquitin
notes: ubiquitin, S. cerevisiae; distal ubiquitin of the dimer; proximal ubiquitin of the dimer with an extra D77 after the C-terminal Gly-Gly; also called K63 di-Ub; K63-di-Ub; source: synthesised in vitro from purified Ub K63R and Ub D77 with human E1, Ubc13 and Mms2; purified (SP Sepharose, Superdex 75)

Kd [1]: 145 µM
B3: K48-linked di-Ub (complex)
chain 1: not shown
chain 2: not shown
modifications: distal ubiquitin; its C-terminus is joined by an isopeptide bond to K48 of the proximal ubiquitin | proximal ubiquitin; K48 carries the distal ubiquitin
notes: ubiquitin, S. cerevisiae; distal ubiquitin of the dimer; proximal ubiquitin of the dimer with an extra D77 after the C-terminal Gly-Gly; also called K48 di-Ub; source: synthesised in vitro from purified Ub K48R and Ub D77 with human E1 and E2-25K; purified (SP Sepharose, Superdex 75)

Kd [2]: 3.1 µM
B4: Art5 PY motifs containing region (520-586) (domain or fragment, S. cerevisiae, UniProt P53244 520-586, looked up)
chain: STTTAHLALPQPPPNYHESTNDHLMPALQPLGADSVVLTVPSYEQAQAQASASSYVTGSVPAYCDDD
notes: Art5, S. cerevisiae, residues 520-586 with the PY motifs; also called Art5 PY motif containing peptide; PY motifs of Art5; source: E. coli Rosetta (DE3), purified (Glutathione Sepharose, PreScission cleavage, Superdex 200)
